{
  "source": "patent US11278600B2",
  "about": "“Human alpha-galactosidase variants” (Codexis, Inc., priority 2014, dated 2022)",
  "molecules": {"B1": {"name": "484 (protein)", "chain": "LDNGLARTPTMGWLHWERFMCNLDCQEEPDSCISEKLFMEMAERMVSEGWKDAGYEYLCIDDCWMAPQRDSEGRLQADPQRFPHGIRQLANYVHSKGLKLGIYADVGNKTCAGFPGSFGYYDIDAQTFADWGVDLLKFDGCYCDSLENLADGYKHMSLALNRTGRSIVYSCEWPLYMWPFQKPNYTEIRQYCNHWRNFADIDDSWKSIKSILDWTSFNQERIVDVAGPGGWNDPDMLVIGNFGLSWNQQVTQMALWAIMAAPLFMSNDLRHISPQAKALLQDKDVIAINQDPLGKQGYQLRQGDNFEVWERPLSGLAWAVAMINRQEIGGPRSYTIAVASLGKGVACNPACFITQLLPVKRKLGFYEWTSRLRSHINPTGTVLLQLENTMQVSLKDLL", "modifications": "Synthetic Polypeptide sequence of Variant No. 484 of mature Human GLA"}, "B2": {"name": "485 (protein)", "chain": "B1 chain with V392W", "modifications": "Synthetic Polypeptide sequence of Variant No. 485 of mature Human GLA"}, "B3": {"name": "486 (protein)", "chain": "B1 chain with M390C, V392M", "modifications": "Synthetic Polypeptide sequence of Variant No. 486 of mature Human GLA"}, "B4": {"name": "487 (protein)", "chain": "B1 chain with T389G, V392M", "modifications": "Synthetic Polypeptide sequence of Variant No. 487 of mature Human GLA"}, "B5": {"name": "370 (protein)", "chain": "LDNGLARTPTMGWLHWERFMCNLDCQEEPDSCISEKLFMEMAEQMVSEGWKDAGYEYLCIDDCWMAPQRDSEGRLQADPQRFPHGIRQLANYVHSKGLKLGIYADVGNKTCAGFPGSFGYYDIDAQTFADWGVDLLKFDGCYCDSLENLADGYKHMSLALNRTGRSIVYSCEWPLYMWPFQKPNYTEIRQYCNHWRNFADIDDSWKSIKSILDWTSRNQERIVDVAGPGGWNDPDMLVIGNFGLSWDQQVTQMALWAIMAAPLFMSNDLRHISPQAKALLQDKDVIAINQDPLGKQGYQLRKGDNFEVWERPLSGDAWAVAIINRQEIGGPRSYTIPVASLGKGVACNPACFITQLLPVKRQLGFYNWTSRLKSHINPTGTVLLQLENTMQMSLKDLL", "modifications": "Synthetic Polypeptide sequence of Variant No. 370 of mature Human GLA"}},
  "note": "Residue numbers refer to the chain shown, from its start.",
  "data": [
    {"test": "HTP-analysis of yeast culture supernatants, no challenge (MUGal hydrolysis)", "assay_type": "biochemical", "conditions": "activity of the variant/activity of Rd4BB (SEQ ID NO: 15)", "outline": "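GLA variants expressed in yeast INVSc1, secreted into SD-Ura broth over 66-84 h at 30° C; clarified supernatants tested without challenge. Supernatant mixed with McIlvaine buffer pH 4.8 and 2 mM MUGal (citrate/KCl, pH 4.6), 37° C for 30-180 min, carbonate-quenched, fluorescence Ex 355/Em 448 nm.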", "values": [
      {"molecule": "B1", "Relative Activity of GLA Variants After No Challenge (NC)": "+ (0.5 to 1.5 relative activity over Rd4BB (SEQ ID NO: 15))"},
      {"molecule": "B2", "Relative Activity of GLA Variants After No Challenge (NC)": "+ (0.5 to 1.5 relative activity over Rd4BB (SEQ ID NO: 15))"},
      {"molecule": "B3", "Relative Activity of GLA Variants After No Challenge (NC)": "+ (0.5 to 1.5 relative activity over Rd4BB (SEQ ID NO: 15))"},
      {"molecule": "B4", "Relative Activity of GLA Variants After No Challenge (NC)": "+ (0.5 to 1.5 relative activity over Rd4BB (SEQ ID NO: 15))"},
      {"molecule": "B5", "Relative Activity of GLA Variants After No Challenge (NC)": "+ (0.5 to 1.5 relative activity over Rd4BB (SEQ ID NO: 15))"}
    ]},
    {"test": "HTP-analysis of supernatants pretreated with base (MUGal hydrolysis)", "assay_type": "biochemical", "conditions": "activity of the variant/activity of Rd4BB (SEQ ID NO: 15); challenge at pH 9.65", "outline": "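Supernatants from INVSc1 yeast expressing GLA variants (SD-Ura, 66-84 h, 30° C) were mixed with McIlvaine buffer pH 7.0-8.2 or 200 mM sodium bicarbonate pH 9.1-9.7 and held 1-18 h at 37° C. Residual activity was then measured on MUGal at pH 4.8/4.3, 37° C, 30-180 min, by fluorescence (Ex 355/Em 448 nm).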", "values": [
      {"molecule": "B1", "Relative Activity of GLA Variants After Challenge at pH 9.65": "+ (0.5 to 1.5 relative activity over Rd4BB (SEQ ID NO: 15))"},
      {"molecule": "B2", "Relative Activity of GLA Variants After Challenge at pH 9.65": "+ (0.5 to 1.5 relative activity over Rd4BB (SEQ ID NO: 15))"},
      {"molecule": "B3", "Relative Activity of GLA Variants After Challenge at pH 9.65": "+ (0.5 to 1.5 relative activity over Rd4BB (SEQ ID NO: 15))"},
      {"molecule": "B4", "Relative Activity of GLA Variants After Challenge at pH 9.65": "+ (0.5 to 1.5 relative activity over Rd4BB (SEQ ID NO: 15))"},
      {"molecule": "B5", "Relative Activity of GLA Variants After Challenge at pH 9.65": "+ (0.5 to 1.5 relative activity over Rd4BB (SEQ ID NO: 15))"}
    ]},
    {"test": "HTP-analysis of supernatants pretreated with acid (MUGal hydrolysis)", "assay_type": "biochemical", "conditions": "activity of the variant/activity of Rd4BB (SEQ ID NO: 15); challenge at pH 3.7", "outline": "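Fluorescence of MUGal hydrolysis (Ex. 355 nm, Em. 448 nm) is read after sodium carbonate quench. The enzyme source is INVSc1 yeast culture supernatant, first exposed to pH 3.3-4.3 McIlvaine buffer at 37° C. for 1-3 h, then reacted at pH 4.8 for 30-180 minutes.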", "values": [
      {"molecule": "B1", "Relative Activity of GLA Variants After Challenge at pH 3.7": "+ (0.5 to 1.5 relative activity over Rd4BB (SEQ ID NO: 15))"},
      {"molecule": "B2", "Relative Activity of GLA Variants After Challenge at pH 3.7": "+ (0.5 to 1.5 relative activity over Rd4BB (SEQ ID NO: 15))"},
      {"molecule": "B3", "Relative Activity of GLA Variants After Challenge at pH 3.7": "+ (0.5 to 1.5 relative activity over Rd4BB (SEQ ID NO: 15))"},
      {"molecule": "B4", "Relative Activity of GLA Variants After Challenge at pH 3.7": "+ (0.5 to 1.5 relative activity over Rd4BB (SEQ ID NO: 15))"},
      {"molecule": "B5", "Relative Activity of GLA Variants After Challenge at pH 3.7": "++ (>1.5 to 2.5 relative activity over Rd4BB (SEQ ID NO: 15))"}
    ]}
  ]
}
